Results reported in patent US20060233706A1, “Marked peptides having affinity for a phospholipid and uses” (COMMISSARIAT A L'ENERGIE, priority 2002, published 2006).

Legend:
[1] = Labelling of the kidney in the same rats (fluorescence microscopy of kidney sections); format: in vivo; details: 200 μg into the jugular vein, 60 minutes, labelling linked to partial elimination of the products
Procedure: Briefly, four rats (300 g each) were anaesthetized, intubated and ventilated. Myocardial ischaemia was triggered by a transient occlusion of the coronary artery. After 30 minutes of occlusion, the coronary artery was reperfused for one hour.
At the end of the reperfusion period, the AFIM-fluorescein peptides of Example 6 were injected into the jugular vein in an amount of 200 μg of peptide for each of two of the rats in a total volume of 1 ml.
By way of comparison, 200 μg of annexin 5-fluorescein (compounds of the prior art) were injected under the same conditions for each of the other two rats in a total volume of 1 ml.
The rats were sacrificed after 60 minutes.
Five organs were stored for this study: the heart, the lung, the kidney, the liver and the brain. They were washed and rinsed in the presence of formalin. […]
A few sections were stained with haematoxylin. The sections were examined under a fluorescence microscope and the adjacent sections stained with haematoxylin were examined with a visible light microscope. The sections stained with haematoxylin (labelled H1 and H2 respectively in the appended FIGS. 1 and 2) allow visualisation of the architecture of the tissues and fluorescence microscopy to detect the labelling with AFIM-fluorescein (AFIM-F) or with annexin 5-fluorescein (A5-F).

[2] = prior art observation; cited from earlier work

In the case of “annexin 5: prior art annexin protein that binds anionic phospholipids in a calcium-dependent manner”, the “Labelling of the entire renal tissue” value [1] is listed as “strongly labelled” and the Toxicity [2] is listed as “renal toxicity”.
